The target of data set [1] is T1, GST-DREB2A (fragment encoded by cDNA nt 167-666) (Arabidopsis thaliana, UniProt O82132 SEQ:1-166). Briefly: EMSA; room temperature 20 min; 6% gel 0.25x TBE. The conditions noted are these: tags: N-terminal GST (pGEX-4T-1), E. coli JM109; label: 32P. Here is the method: (§1) E. coli in which the fusion protein had been induced was suspended in 13 ml of buffer (10 mM Tris-HCl, 0.1 mM DTT, 0.1 mM phenylmethylsulfonyl fluoride). Then, 1% Triton X-100 and 1 mM EDTA were added thereto. After the cells were disrupted by sonication, the disrupted material was centrifuged at 22,000×g for 20 min. Then, the fusion protein of DREB1A (or DREB2A) and GST was purified by affinity chromatography using glutathione-Sepharose (Pharmacia) as a carrier. The resultant fusion protein was incubated with the DRE-containing 71 bp DNA fragment probe prepared by PCR and radiolabelled with ³²P at room temperature for 20 min. This mixture was electrophoresed using 6% acryl amide gel containing 0.25× Tris-borate-EDTA at 100 V for 2 hr. […] As is clear from this Figure, a band which migrated behind was detected when the fusion protein was incubated with the DRE-containing 71 bp DNA fragment probe (SEQ ID NO: 18). When a DNA fragment containing a varied DRE sequence (SEQ ID NO: 19, 20 or 21) was used, such a band was not detected. On the other hand, when a DNA fragment which was partly varied outside of DRE sequence (SEQ ID NO: 22 or 23) was used as a probe, a behind band was detected. Thus, it was shown that DREB1A or DREB2A protein specifically bound to DRE sequence.

Data set [2] has as its target T2, GST-DREB1A (fragment encoded by cDNA nt 119-547) (Arabidopsis thaliana, UniProt Q9M0L0 SEQ:1-143). Briefly: EMSA; room temperature 20 min; 6% gel 0.25x TBE. The conditions noted are these: tags: N-terminal GST (pGEX-4T-1), E. coli JM109; label: 32P. Here is the method: as §1
(Mobility shift assays separate free from complexed probe on a gel.)

The target in data set [3] is T1, GST-DREB2A (fragment encoded by cDNA nt …). The data set can be described thus: EMSA; shifted band. The conditions noted are these: tags: N-terminal GST (pGEX-4T-1), E. coli JM109; label: 32P. The procedure:
as §1

Data set [4] addresses T2, GST-DREB1A (fragment encoded by cDNA nt …). The data set can be described thus: EMSA; shifted band. The conditions noted are these: tags: N-terminal GST (pGEX-4T-1), E. coli JM109; label: 32P. Here is the method:
as §1

Data set [5] has as its target T1, GST-DREB2A (fragment encoded by cDNA nt …). The data set can be described thus: EMSA; no shifted band. The conditions noted are these: tags: N-terminal GST (pGEX-4T-1), E. coli JM109; label: 32P. The procedure:
as §1

For data set [6], the target named is T2, GST-DREB1A (fragment encoded by cDNA nt …). Briefly: EMSA; no shifted band. The conditions noted are these: tags: N-terminal GST (pGEX-4T-1), E. coli JM109; label: 32P. Here is the method: as §1
Data set [7] has as its target DREB2A delta136-165 (constitutive active form) (Arabidopsis thaliana, UniProt O82132 SEQ:1-335, del136-165). The data set can be described thus: cell_activity; GUS transactivation vs basal, T87 protoplasts; >3x full length. The procedure: Isolation of Arabidopsis T87 cell protoplasts and polyethylene glycol-mediated DNA transfection were performed as described previously (Abel and Theologis, 1994 Plant J. 5, 421-427). Five-day-old Arabidopsis T87 suspension cultured cells were collected by filtration and washed with water. Five grams of T87 cells were incubated with enzyme solution (0.4M mannitol, 5 mM MES-KOH (pH 5.7), 8 mM CaCl₂, 1% [w/v] Cellulase ONOZUKA R10 (Yakult), 0.5% [w/v] Macerozyme R10 (Yakult)) at room temperature for 2 hours with gentle agitation. Cells were passed through 125 μm nylon mesh, recovered by centrifugation at 450 g for 5 minutes at room temperature and washed twice in 30 ml of […], 70 mM CaCl₂, and 5 mM MES-KOH (pH 5.7). Finally protoplasts were resuspended in MaMg solution (0.4 M mannitol, 15 mM MgCl₂, 5 mM MES-KOH (pH 5.7)) and concentration was adjusted to 3×10⁶ cell/ml. The isolated protoplasts were kept on ice until use. Plasmid DNAs used for protoplast transformation were prepared by using a QINGEN plasmid isolation kit (QIAGEN) and dissolved in 10 mM Tris-HCl (pH 8.0), and 1 mM EDTA at 1 μg/μL. One hundred μL of protoplast suspension was mixed well with 10 μL of effector plasmid, 10 μL of reporter plasmid and 5 μL of 35S:Luciferase internal control plasmid. […]

Changes are numbered by the printed parent chain.

T1 sequence (O82132 1-166): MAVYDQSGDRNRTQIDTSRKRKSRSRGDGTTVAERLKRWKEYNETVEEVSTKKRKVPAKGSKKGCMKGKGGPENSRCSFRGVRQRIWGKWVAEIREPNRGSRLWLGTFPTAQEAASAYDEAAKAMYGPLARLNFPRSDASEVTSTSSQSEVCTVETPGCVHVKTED
T2 sequence (Q9M0L0 1-143): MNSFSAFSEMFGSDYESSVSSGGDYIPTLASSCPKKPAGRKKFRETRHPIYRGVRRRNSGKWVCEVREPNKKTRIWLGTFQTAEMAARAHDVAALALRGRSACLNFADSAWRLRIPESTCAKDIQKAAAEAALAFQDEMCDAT
DREB2A delta136-165 (constitutive active form), sequence (O82132 other isoform, or with tags, fused parts or gaps del136-165 | mutant): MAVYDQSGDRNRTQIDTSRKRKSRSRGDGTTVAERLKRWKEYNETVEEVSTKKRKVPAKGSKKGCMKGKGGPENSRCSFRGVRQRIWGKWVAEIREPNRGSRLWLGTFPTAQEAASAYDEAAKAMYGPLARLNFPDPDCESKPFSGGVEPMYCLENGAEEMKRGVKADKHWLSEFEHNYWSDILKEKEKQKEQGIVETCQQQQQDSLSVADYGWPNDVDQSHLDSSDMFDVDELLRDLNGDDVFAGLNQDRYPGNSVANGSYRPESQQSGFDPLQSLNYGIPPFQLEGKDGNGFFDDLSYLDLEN

B1: rd29A promoter 71 bp DRE probe (wild type) (dsDNA)
DNA 1: CAGTTTGAAAGAAAAGGGAAAAAAAGAAAAAATAAATAAAAGATATACTACCGACATGAGTTCCAAAAAGC
DNA 2: GCTTTTTGGAACTCATGTCGGTAGTATATCTTTTATTTATTTTTTCTTTTTTTCCCTTTTCTTTCAAACTG
Regarding B1, the binding result in data set [1] and in data set [2] was “binds” throughout.

B2: 71 bp probe, mutated outside DRE (SEQ 23) (dsDNA)
DNA 1: B1 DNA 1 with C64G, A65G, A66T, A67T
DNA 2: B1 DNA 2 with T5A, T6A, T7C, G8C
With B2, the binding result in data set [3] and in data set [4] was “binds” throughout.

B3: 71 bp probe, mutated outside DRE (SEQ 22) (dsDNA)
DNA 1: B1 DNA 1 with G60T, T61C, T62A, C63A
DNA 2: B1 DNA 2 with G9T, A10T, A11G, C12A
As to B3, the binding result in data set [3] and in data set [4] was “binds” each time.

B4: 71 bp probe, DRE mutant (SEQ 21) (dsDNA)
DNA 1: B1 DNA 1 with T57A, G58A
DNA 2: B1 DNA 2 with C14T, A15T
Turning to B4, the binding result in data set [5] and in data set [6] was “no binding” each time.

B5: 71 bp probe, DRE mutant (SEQ 19) (dsDNA)
DNA 1: B1 DNA 1 with C48T, A50T, C51T
DNA 2: B1 DNA 2 with G21A, T22A, G24A
B5: the binding result in data set [5] and in data set [6] was “no binding” throughout.

B6: DRE-containing 71 bp rd29A region in GUS reporter (3 tandem copies) (dsDNA)
DNA 1: B1 DNA 1
DNA 2: B1 DNA 2
In the case of B6, in data set [7], the activity is above 30 fold.

B7: 71 bp probe, DRE mutant (SEQ 20) (dsDNA)
DNA 1: B1 DNA 1 with C52T, G53T, A54T, C55T
DNA 2: B1 DNA 2 with G17A, T18A, C19A, G20A
On to B7, for which the binding result in data set [5] and in data set [6] was “no binding” each time.

For the origin of these results see patent US20060015973, “Environmental stress-tolerant plants” (Independent Admin. Institute, Japan International Research …, published 2006).
